According to patent publication US20210145976A1:

Biological target: human serum albumin (human) (UniProt P02768)
Experiment: screening ELISA

Sequence of human serum albumin (human) (P02768 25-609 limits assumed): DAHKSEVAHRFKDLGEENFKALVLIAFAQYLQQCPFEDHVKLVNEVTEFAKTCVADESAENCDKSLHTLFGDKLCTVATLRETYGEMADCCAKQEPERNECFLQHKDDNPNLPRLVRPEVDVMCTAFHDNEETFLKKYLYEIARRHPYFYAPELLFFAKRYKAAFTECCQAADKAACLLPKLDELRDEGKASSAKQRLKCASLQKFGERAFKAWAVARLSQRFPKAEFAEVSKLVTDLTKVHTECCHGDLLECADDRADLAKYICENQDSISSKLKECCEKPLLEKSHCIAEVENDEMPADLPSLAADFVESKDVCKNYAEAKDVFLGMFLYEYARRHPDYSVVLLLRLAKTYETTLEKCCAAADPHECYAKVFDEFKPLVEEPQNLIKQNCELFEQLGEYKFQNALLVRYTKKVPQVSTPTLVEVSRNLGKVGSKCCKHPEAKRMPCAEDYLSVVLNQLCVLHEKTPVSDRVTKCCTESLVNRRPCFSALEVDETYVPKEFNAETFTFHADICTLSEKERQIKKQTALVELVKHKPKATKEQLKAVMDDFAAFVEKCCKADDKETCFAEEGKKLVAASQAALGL

HSA | Binder
29600 | SEQ ID NO 122 (designed binder) MLPAPKNLVVSRVTEDSARLSWTAPDAAFDSFQIPYWEQSLGGEAIVLTVPGSERSYDLTGLKPGTEYEVWIEGVKGGDLSFPLSAISTT
1850 | SEQ ID NO 119 (designed binder) MLPAPKNLVVSRVTEDSARLSWTAPDAAFDSFHIEYEETPQKGEAIFLRVPGSERSYDLTGLKPGTEYVVNIRGVKGGDLSSPLGALFTT
15500 | SEQ ID NO 98 (designed binder) MLPAPKNLVVSRITEDSARLSWTAPDAAFDSFDIPYGEFDTIGEAIVLTVPGSERSYDLTGLKPGTEYDVYIEGVKGGHLSWPLSAIFTT
2250 | SEQ ID NO 86 (designed binder) MLPAPKNLVVSRVTEDSARLSWTAPDAAFDSFIIWYAEWVNDGEAIVLTVPGSERSYDLTGLKPGTEYRVEITGVKGGTWSRPLSAIFTT
4160 | SEQ ID NO 38 (designed binder) MLPAPKNLVVSRVTEDSARLSWTAPDAAFDSFHIAYEESHTTGEAIFLRVPGSERSYDLTGLKPGTEYSVSIEGVKGGHYSPPLTAKFTT
8150 | SEQ ID NO 99 (designed binder) MLPAPKNLVVSRVTEDSARLSWTAPDAAFDSFGIQYNEFVFRGEAIVLTVPGSERSYDLTGLKPGTEYFVPISGVKGGDDSRPLSAIFTT
6000 | SEQ ID NO 88 (designed binder) MLPAPKNLVVSRVTEDSARLSWTAPDAAFDSFWIEYFEWTVGGEAIVLTVPGSERSYDLTGLKPGTEYYVSIYGVKGGWLSPPLSAIFTT
4200 | SEQ ID NO 114 (designed binder) MLPAPKNLVVSRVTEDSARLSWTAPDAAFDSFAIEYWEAVGSGEAIVLTVPGSERSYDLTGLKPGTEYHVYIYGVKGGYLSLPLSAIFTT
1700 | SEQ ID NO 104 (designed binder) MLPAPKNLVVSHVTEDSARLSWTAPDAAFDSFDIEYYELVGSGEAIVLTVPGSERSYDLTGLKPGTEYYVAIYGVKGGYLSRPLSAIFTT
7450 | SEQ ID NO 111 (designed binder) MLPAPKNLVVSRVTEDSARLSWTAPDAAFDSFWIYYYESVGTGEAIVLTVPGSERSYDLTGLKPGTEYFVDISGVKVGTYSLPLSAIFTT
1520 | SEQ ID NO 35 (designed binder) MLPAPKNLVVSRVTEDSARLSWTAPDAAFDSFEIAYFEAIWNGEAIYLTVPGSERSYDLTGLKPGTEYQVEIRGVKGGPTSRPLFAWFTT
9900 | SEQ ID NO 94 (designed binder) MLPAPKNLVVSRITEDSARLSWTAPDAAFDSFGIYYYEWWSTGEAIVLTVPGSERSYDLTGPKPGTEYYVKISGVKGGYRSYPLSAIFTT
1250 | SEQ ID NO 109 (designed binder) MLPAPKNLVVSRVTEDSARLSWTAPDAAFDSFHIAYEELVTEGEAIYLRVPGSERSYDLTGLKPGTEYLVDIEGVKGGHLSSPLSAIFTT
9100 | SEQ ID NO 101 (designed binder) MLPAPKNLVVSRVTEDSARLSWTAPDAAFDSFAIDYDEPINSGEAIVLTVPGSERSYDLTGPKPGTEYEVEIYGVKGGYLSRPLSAIFTT
3850 | SEQ ID NO 84 (designed binder) MLPAPKNLVVSRVTEDSARLSWTAPDAAFDSFPIYYWEVFPAGEAIELDVPGSERSYDLTGLKPGTEYFVRIEGVKGGASSYPLRAEFTT

The next lines start with the binder.

Binder | HSA
SEQ ID NO 36 (designed binder) MLPAPKNLVVSRVTEDSARLSWTAPDAAFDSFTITYIEWWENGEAIALSVPGSERSYDLTGLKPGTEYQVGIAGVKGGYKSYPLWALFTT | 6160
SEQ ID NO 95 (designed binder) MLPAPKNLVVSRVTEDSARLSWTAPDAAFDSFRISYYEWYDLGEAIVLTVPGSERSYDLTGLKPGTEYWVDIAGVKGGYYSYPLSAIFTT | 1900
SEQ ID NO 97 (designed binder) MLPAPKNLVVSRVTEDSARLSWTAPDAAFDSFFISYFEGWASGEAIHLYVPGSERSYDLTGLKPGTEYSVHIQGVKGGQPSTPLSAIFTT | 2200
SEQ ID NO 126 (designed binder) MLPAPKNLVVSRVTEDSARLSWTAPDAAFDSFSIDYLELGESGEAIVLTVPGSERSYDLTGLKPGTEYWVYIFGVKGGYPSAPLSAIFTT | 1750
SEQ ID NO 93 (designed binder) MLPAPKNLVVSRVTEDSARLSWTAPDAAFDSFYIGYLEPGDNGEAIVLTVPGSERSYDLTGLKPGTEYNVSIGGVKGGLGSYPLSAIFTT | 1650
SEQ ID NO 90 (designed binder) MLPAPKNLVVSRVTEDSARLSWTAPDAAFDSFTIHYWEFDPPGEAIVLTVPGSERSYDLTGLKPGTEYTVYIEGVKGGWWSKPLSAIFTT | 2550
SEQ ID NO 91 (designed binder) MLPAPKNLVVSRVTEDSARLSWTAPDAAFDSFVIEYWERTQPGEAIVLTVPGSERSYDLTGLKPGTEYDVWISGVKGGKWSEPLSAIFTT | 1800
SEQ ID NO 118 (designed binder) MLPAPKNLVVSRVTEDSARLSWTAPDAAFDSFRILYGEVDPWGEAIVLTVPGSERSYDLTGLKPGTEYDVWIEGVKGGKLSWPLSAIFTT | 18800
SEQ ID NO 117 (designed binder) MLPAPKNLVVSRVTEDSARLSWTAPDAAFDSFTIPYGEAFNPGEAIVLTVPGSERSYDLTGLKPGTEYDVFIEGVKGGTLSWPLSAIFTT | 23500
SEQ ID NO 85 (designed binder) MLPAPKNLVVSRVTEDSARLSWTAPDAAFDSFFIWYWEKSVDGEAIVLTVPGSERSYDLTGLKPGTEYNVGIQGVKGGTPSDPLSAIFTT | 2500
SEQ ID NO 100 (designed binder) MLPAPKNLVVSRVTEDSARLSWTAPDAAFDSFWIEYWEVVGFGEAIVLTVPGSERSYDLTGLKPGTEYWVGIYGVKGGNPSVPLSAIFTT | 2350
SEQ ID NO 121 (designed binder) MLPAPKNLVVSRVTEDSARLSWTAPDAAFDSFSIDYPEFPVRGEAIVLTVPGSERSYDLTGPKPGTEYNVTIQGVKGGFPSMPLSAIFTT | 28600
SEQ ID NO 102 (designed binder) MLPAPKNLVVSRVTEDSARLSWTAPDAAFDSFSIDYDEPQPVGEAIVLTVPGSERSYDLTGLKPGTEYRVDIWGVKGGPTSGPLRATFTT | 13400
SEQ ID NO 113 (designed binder) MLPAPKNLVVSRVTEDSARLSWTAPDAAFDSFDIHYKEHSWWGEAIVLTVPGSERSYDLTGLKPGTEYIVPIPGVKGGGISRPLSAIFTT | 22600
SEQ ID NO 107 (designed binder) MLPAPKNLVVSRVTEDSARLSWTAPDAAFDSFFIQYTESHWVGEAIVLTVPGSERSYDLTGLKPGTEYAVPIEGVKGGDSSTPLSAIFTT | 4050
SEQ ID NO 125 (designed binder) MLPAPKNLVVSRVTEDSARLSWTAPDAAFDSFVIEYFEFVGEGEAIVLTVPGSERSYDLTGLKPGTEYDVGIYGVKGGSLSSPLSAIFTT | 1050
SEQ ID NO 103 (designed binder) MLLAPKNLVVSRVTEDSARLSWTAPDAAFDSFAIEYFEYTGEGEAIVLTVPGSERSYDLTGLKPGTEYYVGIYGVKGGYLSRPLSAIFTT | 1200
SEQ ID NO 120 (designed binder) MLPAPKNLVVSRVTEDSARLSWTAPDAAFDSFRIEYIEWWVGGEAIVLTVPGSERSYDLTGLKPGTEYWVDIKGVKGGKRSYPLSAIFTT | 1850
SEQ ID NO 105 (designed binder) MLPAPKNLVVSRVTEDSARLSWTAPDAAFDSFGIAYYERSGAGEAIVLTVPGSERSYDLTGLKPGTEYMVYINGVKGGFVSSPLSAIFTT | 1400
SEQ ID NO 37 (designed binder) MLPAPKNLVVSRVTEDSARLSWTAPDAAFDSFHIIYTEEEKEGEAIYLRVPGSERSYDLTGLKPGTEYLVEIEGVKGGKRSVPLNASFTT | 2720
SEQ ID NO 124 (designed binder) MLPAPKNLVVSRVTEDSARLSWTAPDAAFDSFSIDYPEFPVRGEAIVLTVPGSERSYDLTGLKPGTEYAVTIWGVKGGFTSQPLSAIFTT | 3450
SEQ ID NO 110 (designed binder) MLPAPKNLVVSRVTEDSARLSWTAPDAAFDSFFIHYHEWWEAGEAIVLTVPGSERSYDLTGLKPGTEYLVDIPGVKGGDLSVPLSAIFTT | 18800
SEQ ID NO 115 (designed binder) MLPAPKNLVVSRVTEDSARLSWTAPDAAFDSFFIGYLEPQPPGEAIVLTVPGSERSYDLTGLKPGTEYNVTIQGVKGGFPSMPLSAIFTTT | 3450
SEQ ID NO 39 (designed binder) MLPAPKNLVVSRVTEDSARLSWTAPDAAFDSFDIDYREWWTLGEAIVLTVPGSERSYDLTGLKPGTEYYVNIQGVKGGLRSYPLSAIFTT | 4160
SEQ ID NO 106 (designed binder) MLPAPKNLVVSRVTEDSARLSWTAPDAAFDSFTIAYEEHGLVGEAIYLRVPGSERSYDLTGLKPGTEYHVGIMGVKGGVFSSPLSAIFTT | 1200
SEQ ID NO 127 (designed binder) MLPAPKNLVVSRVTEDSARLSWTAPDAAFDSFPIPYGESPPSGEAIVLTVPGSERSYDLTGLKPGTEYVVIIRGVKGGGRSGPLSAISTT | 93300
